Assay in all cases: cross-linking
Experiment [1] addresses Mycobacterium tuberculosis HtpG-His6 with para-benzoyl-phenylalanine at F10 (Mycobacterium tuberculosis) (UniProt P9WMJ7).
The target of experiment [2] is Mycobacterium tuberculosis HtpG-His6 with para-benzoyl-phenylalanine at F635 (Mycobacterium tuberculosis) (UniProt P9WMJ7).
Experiment [3] concerns the target Mycobacterium tuberculosis HtpG-His6 with para-benzoyl-phenylalanine at W197 (Mycobacterium tuberculosis) (UniProt P9WMJ7).

As usually defined, the stoichiometry N is a count of units in the complex or per binding partner. Consider “Mycobacterium tuberculosis HtpG-His6 with para-benzoyl-phenylalanine at F10 (from UniProt P9WMJ7 1-647) (natural protein)”, for which the stoichiometry N in experiment [1] is 2.

“Mycobacterium tuberculosis HtpG-His6 with para-benzoyl-phenylalanine at F635 (from UniProt P9WMJ7 1-647) (natural protein)”: the stoichiometry N in experiment [2] stood at 2.

In the case of “Mycobacterium tuberculosis HtpG-His6 with para-benzoyl-phenylalanine at W197 (from UniProt P9WMJ7 1-647) (natural protein)”, the stoichiometry N in experiment [3] was 2.

For the origin of these results see article PMC9007595 (Molecular microbiology, 2020).
